Experimental data reported in US20240109955A1.

How the values were obtained:
Experiment in all cases: cell-based or functional assay
[1] = target: SARS-CoV-2 spike (S) protein of Omicron sublineage BJ.1 (R346T, V445P, G446S) (SARS-CoV-2) (UniProt P0DTC2)
[2] = target: SARS-CoV-2 spike (S) protein of Omicron sublineage BA.2.75 (G446S) (SARS-CoV-2) (UniProt P0DTC2)
[3] = target: SARS-CoV-2 spike (S) protein of Omicron sublineage BQ.1.1 (R346T, K444T, F486V) (SARS-CoV-2) (UniProt P0DTC2)
[4] = target: SARS-CoV-2 spike (S) protein, Omicron variant BA.1 (SARS-CoV-2) (UniProt P0DTC2)
[5] = target: SARS-CoV-2 spike protein, Alpha variant (B.1.1.7) (SARS-CoV-2)
[6] = target: SARS-CoV-2 spike protein, C.1.2 variant (SARS-CoV-2)
[7] = target: SARS-CoV-2 spike protein, Delta variant (B.1.617.2) (SARS-CoV-2)
[8] = target: SARS-CoV-2 spike protein, Gamma variant (P.1) (SARS-CoV-2)
[9] = target: SARS-CoV-2 spike (S) protein, Omicron variant BA.2.12.1 (SARS-CoV-2) (UniProt P0DTC2)
[10] = target: SARS-CoV-2 spike protein, Mu variant (B.1.621) (SARS-CoV-2)
[11] = target: SARS-CoV-2 spike protein, Beta variant 1 (B.1.351 v1) (SARS-CoV-2)
[12] = target: SARS-CoV-2 spike (S) protein, Omicron variant BA.2 (SARS-CoV-2) (UniProt P0DTC2)
[13] = target: SARS-CoV-2 spike protein, Delta variant (AY.1) (SARS-CoV-2)

Sequence of MX184 (B1-182 × A19-61) (bispecific antibody) (chain): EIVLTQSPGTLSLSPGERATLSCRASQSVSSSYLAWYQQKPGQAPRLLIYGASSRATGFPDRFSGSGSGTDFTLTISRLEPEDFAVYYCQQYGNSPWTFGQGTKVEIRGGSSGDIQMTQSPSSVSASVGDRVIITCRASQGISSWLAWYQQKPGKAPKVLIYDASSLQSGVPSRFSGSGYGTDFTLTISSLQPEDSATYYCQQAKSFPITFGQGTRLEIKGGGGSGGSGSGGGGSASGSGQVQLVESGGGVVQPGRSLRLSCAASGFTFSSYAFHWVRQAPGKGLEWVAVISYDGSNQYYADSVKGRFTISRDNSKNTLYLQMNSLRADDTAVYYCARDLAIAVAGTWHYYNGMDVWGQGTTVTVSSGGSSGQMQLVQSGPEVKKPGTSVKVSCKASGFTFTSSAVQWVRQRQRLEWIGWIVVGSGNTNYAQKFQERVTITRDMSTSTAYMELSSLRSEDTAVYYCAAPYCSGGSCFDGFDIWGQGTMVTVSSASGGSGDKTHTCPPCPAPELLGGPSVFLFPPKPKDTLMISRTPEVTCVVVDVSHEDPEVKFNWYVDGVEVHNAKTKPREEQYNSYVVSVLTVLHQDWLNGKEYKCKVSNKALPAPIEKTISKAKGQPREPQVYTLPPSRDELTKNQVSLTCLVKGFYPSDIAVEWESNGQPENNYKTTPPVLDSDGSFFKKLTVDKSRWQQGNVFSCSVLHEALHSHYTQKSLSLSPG
Sequence of MX468 (A19-61 × A23-58H/B1-182L CL-CH1) (bispecific antibody) (chain): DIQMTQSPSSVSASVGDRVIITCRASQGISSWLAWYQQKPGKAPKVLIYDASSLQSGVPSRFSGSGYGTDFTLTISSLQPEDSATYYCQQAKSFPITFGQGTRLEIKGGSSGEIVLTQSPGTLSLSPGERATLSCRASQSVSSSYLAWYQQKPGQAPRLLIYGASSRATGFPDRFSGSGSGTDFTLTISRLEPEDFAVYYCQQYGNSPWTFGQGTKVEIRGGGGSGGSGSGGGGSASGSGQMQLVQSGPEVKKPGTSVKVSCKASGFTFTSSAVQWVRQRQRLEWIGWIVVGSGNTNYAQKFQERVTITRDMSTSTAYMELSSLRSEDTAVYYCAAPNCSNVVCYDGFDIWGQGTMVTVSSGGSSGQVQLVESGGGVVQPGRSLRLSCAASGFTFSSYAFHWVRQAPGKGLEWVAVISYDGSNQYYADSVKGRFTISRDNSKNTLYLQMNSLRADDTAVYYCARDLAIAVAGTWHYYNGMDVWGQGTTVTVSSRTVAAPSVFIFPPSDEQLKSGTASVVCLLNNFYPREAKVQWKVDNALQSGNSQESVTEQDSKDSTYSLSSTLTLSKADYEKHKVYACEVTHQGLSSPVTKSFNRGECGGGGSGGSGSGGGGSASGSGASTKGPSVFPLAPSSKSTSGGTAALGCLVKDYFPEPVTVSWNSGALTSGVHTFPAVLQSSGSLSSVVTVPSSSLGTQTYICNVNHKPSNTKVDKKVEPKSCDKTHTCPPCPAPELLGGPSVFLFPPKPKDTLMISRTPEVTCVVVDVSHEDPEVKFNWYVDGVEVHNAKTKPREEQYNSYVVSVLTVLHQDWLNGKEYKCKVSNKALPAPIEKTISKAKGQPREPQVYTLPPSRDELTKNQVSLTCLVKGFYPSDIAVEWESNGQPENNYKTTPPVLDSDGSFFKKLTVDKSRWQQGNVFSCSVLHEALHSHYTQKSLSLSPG
Sequence of MX492 (A19-46 x A23-58H/B1-182L) bispecific, tetravalent molecule with Fc (bispecific antibody) (chain): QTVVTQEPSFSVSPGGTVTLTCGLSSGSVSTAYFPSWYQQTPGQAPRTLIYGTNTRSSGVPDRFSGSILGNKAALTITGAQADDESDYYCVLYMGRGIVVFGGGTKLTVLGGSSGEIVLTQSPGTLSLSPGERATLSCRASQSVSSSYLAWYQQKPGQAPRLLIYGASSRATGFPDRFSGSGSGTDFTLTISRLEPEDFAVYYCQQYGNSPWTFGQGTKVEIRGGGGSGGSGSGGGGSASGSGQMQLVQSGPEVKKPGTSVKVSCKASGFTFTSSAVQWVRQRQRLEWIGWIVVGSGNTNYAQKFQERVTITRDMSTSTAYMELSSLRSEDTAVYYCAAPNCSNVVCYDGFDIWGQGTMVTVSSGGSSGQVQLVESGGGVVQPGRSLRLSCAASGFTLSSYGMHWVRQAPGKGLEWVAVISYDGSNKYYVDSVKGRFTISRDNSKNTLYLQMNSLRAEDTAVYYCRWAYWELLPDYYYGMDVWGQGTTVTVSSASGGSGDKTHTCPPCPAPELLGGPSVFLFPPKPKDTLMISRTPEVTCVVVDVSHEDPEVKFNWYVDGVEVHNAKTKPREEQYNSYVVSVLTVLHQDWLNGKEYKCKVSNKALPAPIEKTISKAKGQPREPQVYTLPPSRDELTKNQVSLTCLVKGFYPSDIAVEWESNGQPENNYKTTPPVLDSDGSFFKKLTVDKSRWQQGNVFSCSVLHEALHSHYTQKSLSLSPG
Sequence of MX493 (A19-46 × A23-58H/B1-182L CL-CH1) (bispecific antibody) (chain): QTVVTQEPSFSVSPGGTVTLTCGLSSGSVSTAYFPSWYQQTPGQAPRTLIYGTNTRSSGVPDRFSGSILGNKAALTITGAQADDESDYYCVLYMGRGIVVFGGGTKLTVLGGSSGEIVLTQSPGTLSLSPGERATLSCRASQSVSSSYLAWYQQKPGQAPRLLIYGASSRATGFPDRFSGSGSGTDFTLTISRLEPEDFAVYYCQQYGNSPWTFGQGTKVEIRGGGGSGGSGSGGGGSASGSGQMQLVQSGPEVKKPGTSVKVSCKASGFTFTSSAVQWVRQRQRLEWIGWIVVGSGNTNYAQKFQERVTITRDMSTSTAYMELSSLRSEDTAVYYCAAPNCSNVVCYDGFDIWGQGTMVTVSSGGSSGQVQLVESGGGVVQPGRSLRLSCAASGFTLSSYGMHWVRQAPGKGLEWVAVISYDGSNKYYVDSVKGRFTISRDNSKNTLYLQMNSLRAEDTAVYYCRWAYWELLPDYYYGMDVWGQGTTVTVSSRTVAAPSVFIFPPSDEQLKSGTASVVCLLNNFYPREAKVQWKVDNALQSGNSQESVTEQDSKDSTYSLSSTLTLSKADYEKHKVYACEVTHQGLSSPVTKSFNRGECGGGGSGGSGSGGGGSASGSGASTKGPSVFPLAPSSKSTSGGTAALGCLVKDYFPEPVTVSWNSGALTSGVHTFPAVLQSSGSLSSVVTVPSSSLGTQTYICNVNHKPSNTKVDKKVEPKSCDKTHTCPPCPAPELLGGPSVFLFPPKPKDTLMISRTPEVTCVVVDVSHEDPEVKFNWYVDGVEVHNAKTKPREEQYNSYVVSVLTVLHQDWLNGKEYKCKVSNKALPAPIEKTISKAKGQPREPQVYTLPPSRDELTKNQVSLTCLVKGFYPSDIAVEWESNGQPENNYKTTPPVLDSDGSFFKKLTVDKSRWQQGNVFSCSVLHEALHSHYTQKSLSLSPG
Sequence of MX467 (A23-58H/B1-182L × A19-61 CL-CH1) (bispecific antibody) (chain): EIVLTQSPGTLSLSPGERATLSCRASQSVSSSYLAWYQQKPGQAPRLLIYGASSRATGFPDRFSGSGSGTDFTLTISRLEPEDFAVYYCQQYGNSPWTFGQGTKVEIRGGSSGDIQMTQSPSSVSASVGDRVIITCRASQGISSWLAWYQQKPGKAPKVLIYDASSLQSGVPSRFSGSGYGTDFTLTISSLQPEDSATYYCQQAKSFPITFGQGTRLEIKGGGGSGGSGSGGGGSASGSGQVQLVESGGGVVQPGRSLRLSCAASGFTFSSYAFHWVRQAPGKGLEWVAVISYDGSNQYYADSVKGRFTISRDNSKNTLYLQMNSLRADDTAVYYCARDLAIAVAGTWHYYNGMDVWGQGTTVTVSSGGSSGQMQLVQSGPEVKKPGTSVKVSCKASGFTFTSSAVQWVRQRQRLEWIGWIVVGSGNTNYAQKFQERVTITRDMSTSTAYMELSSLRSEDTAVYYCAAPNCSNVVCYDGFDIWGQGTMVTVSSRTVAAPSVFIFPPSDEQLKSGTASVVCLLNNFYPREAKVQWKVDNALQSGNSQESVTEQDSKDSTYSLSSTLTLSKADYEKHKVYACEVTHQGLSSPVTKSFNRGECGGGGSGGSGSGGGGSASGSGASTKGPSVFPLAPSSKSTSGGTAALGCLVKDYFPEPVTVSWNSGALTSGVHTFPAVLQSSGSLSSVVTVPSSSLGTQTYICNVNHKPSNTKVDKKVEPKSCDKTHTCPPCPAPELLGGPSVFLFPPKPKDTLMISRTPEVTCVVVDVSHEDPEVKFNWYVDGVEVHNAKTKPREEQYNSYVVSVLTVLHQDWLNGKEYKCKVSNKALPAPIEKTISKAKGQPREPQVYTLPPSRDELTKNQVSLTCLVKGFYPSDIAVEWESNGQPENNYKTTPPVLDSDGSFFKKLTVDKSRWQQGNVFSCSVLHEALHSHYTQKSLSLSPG

Substance | IC50, pseudovirus neutralization [4] [nM] | IC80, pseudovirus neutralization [4] [nM] | IC50, pseudovirus neutralization [5] [nM] | IC80, pseudovirus neutralization [5] [nM] | IC50, pseudovirus neutralization [7] [nM] | IC80, pseudovirus neutralization [7] [nM] | IC50, pseudovirus neutralization [8] [nM] | IC80, pseudovirus neutralization [8] [nM] | IC50, pseudovirus neutralization [9] [nM] | IC80, pseudovirus neutralization [9] [nM] | IC50, pseudovirus neutralization [11] [nM] | IC80, pseudovirus neutralization [11] [nM] | IC50, pseudovirus neutralization [12] [nM] | IC80, pseudovirus neutralization [12] [nM] | also measured
bebtelovimab (LY1404, LY-CoV1404, LY3853133) (antibody) |  |  |  |  |  |  |  |  |  |  |  |  |  |  | IC50, pseudovirus neutralization [1]: > 10000 nM; IC80, pseudovirus neutralization [1]: > 10000 nM; IC50, pseudovirus neutralization [2]: 13 nM; IC80, pseudovirus neutralization [2]: 86 nM; IC50, pseudovirus neutralization [3]: > 10000 nM; IC80, pseudovirus neutralization [3]: > 10000 nM
MX409 (A23-58H/B1-182L Tetravalent) (antibody) | 2.03 | > 66.7 | 0.0139 | 0.0286 | 0.00313 | 0.00882 | 0.00182 | 0.00565 | 8.96 | 52.7 | 0.0073 | 0.0175 | 4.9 | > 66.7 | IC50, pseudovirus neutralization [6]: 0.005 nM; IC80, pseudovirus neutralization [6]: 0.0099 nM; IC50, pseudovirus neutralization [10]: 0.0046 nM; IC80, pseudovirus neutralization [10]: 0.0124 nM
MX493 (A19-46 × A23-58H/B1-182L CL-CH1) (bispecific antibody) | 0.0158 | 0.0387 |  |  |  |  |  |  | 0.0331 | 0.0858 |  |  | 0.02 | 0.0464 | 
MX184 (B1-182 × A19-61) (bispecific antibody) | 47.6 | > 66.7 | 0.0772 | 0.186 | 0.0129 | 0.0458 | 0.0325 | 0.137 |  |  | 0.0441 | 0.12 |  |  | IC50, pseudovirus neutralization [13]: 0.0174 nM; IC80, pseudovirus neutralization [13]: 0.03 nM
MX468 (A19-61 × A23-58H/B1-182L CL-CH1) (bispecific antibody) | 1.33 | 4.06 |  |  |  |  |  |  | 0.0224 | 0.0698 |  |  | 0.0289 | 0.0617 | 
MX467 (A23-58H/B1-182L × A19-61 CL-CH1) (bispecific antibody) | 18.5 | 69.4 |  |  |  |  |  |  | 0.0181 | 0.127 |  |  | 0.0373 | 0.0738 | 
MX466 (A23-58H/B1-182L Cl-CH1 Tetravalent) (antibody) | 0.57 | 8.23 |  |  |  |  |  |  | 0.586 | 18 |  |  | 2.47 | 44.2 | 
MX491 (A23-58H/B1-182L × A19-46 CL-CH1) (bispecific antibody) | 0.0316 | 0.0928 |  |  |  |  |  |  | 1.44 | 7.81 |  |  | 0.0489 | 0.114 | 
A23-58H/B1-182L mAb (antibody) | 0.364 | 1.39 | 0.0174 | 0.0376 | 0.0104 | 0.0205 | 0.0116 | 0.0237 | 0.83 | 3.27 | 0.0305 | 0.0966 | 0.544 | 2.48 | IC50, pseudovirus neutralization [6]: 0.0207 nM; IC80, pseudovirus neutralization [6]: 0.0348 nM; IC50, pseudovirus neutralization [10]: 0.0402 nM; IC80, pseudovirus neutralization [10]: 0.108 nM
MX492 (A19-46 x A23-58H/B1-182L) bispecific, tetravalent molecule with Fc (bispecific antibody) |  |  |  |  |  |  |  |  |  |  |  |  |  |  | IC50, pseudovirus neutralization [1]: 783 nM; IC80, pseudovirus neutralization [1]: 2010 nM; IC50, pseudovirus neutralization [2]: 3 nM; IC80, pseudovirus neutralization [2]: 10 nM; IC50, pseudovirus neutralization [3]: > 10000 nM; IC80, pseudovirus neutralization [3]: > 10000 nM
